Four molecules from paper PMC10288911 (2023) can be followed below.

To fix the notation:
B1: VRC07-523LS.v1 (antibody)
chain 1: QVRLSQSGGQMKKPGDSMRISCRASGYEFINCPINWIRLAPGKRPEWMGWMKPRFGAVSYARQLQGRVTMTRQLSQDPDDPDWGTAFLELRSLTSDDTAVYFCTRGKYCTARDYYNWDFEHWGQGTPVTVSS
chain 2: LTQSPGTLSLSPGETAIISCRTSQYGSLAWYQQRPGQAPRLVIYSGSTRAAGIPDRFSGSRWGPDYNLTISNLESGDFGVYYCQQYEFFGQGTKVQVD
B2: VRC07-523LS.v37 (antibody)
chain 1: B1 chain 1 with R23Q, K107Q
chain 2: B1 chain 2 with R21E
B3: VRC07-523LS.v23 (antibody)
chain 1: B1 chain 1
chain 2: B1 chain 2 with R21S
B4: VRC07-523LS.v34 (antibody)
chain 1: B1 chain 1 with R23S, K107S
chain 2: B1 chain 2 with R21E

Substitutions are numbered along the chain they refer to.

For orientation: Kd means the equilibrium constant for the complex coming apart.

Sequence of FcRn/β2m heterodimers (SPR analyte) (P55899 24-365, chain 1 of 2): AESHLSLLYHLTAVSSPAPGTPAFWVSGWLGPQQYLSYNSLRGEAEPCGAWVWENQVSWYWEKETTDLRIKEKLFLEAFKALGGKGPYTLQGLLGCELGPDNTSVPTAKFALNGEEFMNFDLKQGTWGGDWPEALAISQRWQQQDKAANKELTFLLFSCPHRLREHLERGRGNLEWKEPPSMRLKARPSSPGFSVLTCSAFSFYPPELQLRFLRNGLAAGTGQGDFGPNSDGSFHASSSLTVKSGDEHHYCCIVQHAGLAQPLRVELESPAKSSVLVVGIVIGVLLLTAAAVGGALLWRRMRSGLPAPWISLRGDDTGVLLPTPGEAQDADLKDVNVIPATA
Sequence of FcRn/β2m heterodimers (SPR analyte) (P61769 21-119, chain 2 of 2): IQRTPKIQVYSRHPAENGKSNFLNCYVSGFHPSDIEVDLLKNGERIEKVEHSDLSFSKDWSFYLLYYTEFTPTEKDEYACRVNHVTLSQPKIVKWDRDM
Sequence of 6×His-tag cleaved FcRn/β2m (P55899 24-365, chain 1 of 2): as the sequence (P55899 24-365, chain 1 of 2) above
Sequence of 6×His-tag cleaved FcRn/β2m (P61769 21-119, chain 2 of 2): as the sequence (P61769 21-119, chain 2 of 2) above

The first assay has as its target 6×His-tag cleaved FcRn/β2m (UniProt P55899 24-365; P61769 21-119). In words: BLI; pH 7.4; IgG immobilised. For orientation: In BLI a coated tip is dipped into the sample, and binding shifts an interference pattern.
For B1, the Kd was 0.18 µM. This counts as sub-micromolar.
On the same count and under the same terms, the same measure for B2: 0.18 µM; for B3: 0.17 µM.
For the molecule B4, the Kd was found to be 0.17 µM.

For a further assay, the target named is 6×His-tagged FcRn/β2m (UniProt P55899 24-365; P61769 21-119). In words: BLI; pH 7.4; FcRn immobilised.
Sequence of 6×His-tagged FcRn/β2m (P55899 24-365, chain 1 of 2): as the sequence (P55899 24-365, chain 1 of 2) above
Sequence of 6×His-tagged FcRn/β2m (P61769 21-119, chain 2 of 2): as the sequence (P61769 21-119, chain 2 of 2) above
With B1, binding was characterised by a dissociation constant (Kd) of 0.93 µM. This lies in the sub-micromolar range.
B2 returned a Kd of 5.4 µM.
Still for that read-out and setting: the same measure for B3: 1.6 µM; for B4: 6 µM.

Another assay has as its target FcRn/β2m heterodimers (SPR analyte) (UniProt P55899 24-365; P61769 21-119). In words: SPR; pH 7.4; IgG captured by gp120. On the technique in general: Surface plasmon resonance follows binding to a sensor surface in real time, without labels.
B1 registered a Kd of 10 µM.
The molecule B2 had a Kd of 9.6 µM.
Same read-out and setting: the same measure for B3: 3.8 µM.
On the same count and under the same terms, then B4, with 6.3 µM.
